Reference: patent US20230287092A1 (AstraZeneca / MedImmune, published 2023)

Target: cynomolgus monkey Aβ42 (cynomolgus monkey, UniProt P53601 672-713)
Assay: cell-based or functional assay

Chain of cynomolgus monkey Aβ42 (P53601 672-713 limits assumed): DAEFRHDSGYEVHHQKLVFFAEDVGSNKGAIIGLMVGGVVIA

increase in total CSF Aβ42, 14 weekly doses, cynomolgus monkeys: ≤ 7.7 fold | increase in total plasma Aβ42 against control, 14 weekly doses (10 or 100 mg/kg IV, 75 mg/kg SC), cynomolgus monkeys: ≤ 2060 fold
B1: MEDI1814 (antibody, V domains shown)
VH: EVQLLESGGGLVQPGGSLRLSCAASMGNFNYQTMWWVRQAPGKGLEWVSVIGKTNENIAYADSVKGRFTISRDNSKNTLYLQMNSLRAEDTAVYYCAREWMDHSRPYYYYGMDVWGQGTLVTVSS
VL: SYELTQPPSVSVSPGQTASITCSGHNLEDKFASWYQQKPGQSPVLVIYRDDKRPSGIPERFSASNSGHTATLTISGTQAMDEADYYCSSQDTVTRVFGGGTKLTVL
